Source: PMC3794156, “Structure of the ParM filament at 8.5 Å resolution” (Journal of Structural Biology, 2013)

Molecular target: the molecule itself
Assay: cryo-EM structure; 30 uM ParM in polymerisation buffer (30 mM Tris-HCl, 25 mM KCl, 2 mM MgCl2, 1 mM DTT, pH 7.5) with 5 mM AMPPNP, 5 min at room temperature; filaments spun down and resuspended; helical reconstruction at 8.5 Å

B1: ParM (actin-like protein of the ParMRC system of Escherichia coli R1 plasmid), wild type (natural protein)
chain: MLVFIDDGSTNIKLQWQESDGTIKQHISPNSFKREWAVSFGDKKVFNYTLNGEQYSFDPISPDAVVTTNIAWQYSDVNVVAVHHALLTSGLPVSEVDIVCTLPLTEYYDRNNQPNTENIERKKANFRKKITLNGGDTFTIKDVKVMPESIPAGYEVLQELDELDSLLIIDLGGTTLDISQVMGKLSGISKIYGDSSLGVSLVTSAVKDALSLARTKGSSYLADDIIIHRKDNNYLKQRINDENKISIVTEAMNEALRKLEQRVLNTLNEFSGYTHVMVIGGGAELICDAVKKHTQIRDERFFKTNNSQYDLVNGMYLIGN
notes: ParM, plasmid segregation protein of actin fold, encoded by Escherichia coli R1 plasmid; Forms double-helical filaments of two protofilaments with AMPPNP or ATP; also called ParM protein; wild type protein; source: E. coli BL21-AI, plasmid pJSC1, in cell lysate for the polymerisation assay
Does B1 bind?
Result: binds
